Data on 18 substances can be found in PMC5959852.

One may read the kon as a measure of how fast the partners come together. One may read the koff as the first-order rate constant of dissociation.

The target of assay [1] is TAZ1 (transcriptional adaptor zinc-binding 1) domain of CREB binding protein (CBP) (human) (UniProt Q92793). Kind of assay: stopped-flow fluorimetry (association kinetics); TAZ1 constant at 0.5-0.9 µM, Hif-1α CAD variant varied 1-15 µM; Trp-418 fluorescence of TAZ1; 293 K; 20 mM HEPES pH 6.9, 1 mM TCEP, 190 mM NaCl; apparent kon from the fast phase; Kd = koff^app/kon^app with koff^app from the displacement experiments.

For assay [2] the target is unchanged. Kind of assay: stopped-flow fluorimetry (displacement); complex TAZ1/Hif-1α CAD variant (0.75 µM/0.5 µM) mixed with excess TAZ1 W418Y (10-50 µM); kobs at excess equals apparent koff; 293 K; 20 mM HEPES pH 6.9, 1 mM TCEP, 190 mM NaCl.
For assay [3] the target is unchanged. The assay is described as follows: ITC; 15 µM TAZ1 in the cell, 149 µM Hif-1α CAD (L813A) in the syringe; 293 K; 20 mM HEPES pH 6.9, 1 mM TCEP, 190 mM NaCl; one-to-one model. (In ITC the heat of successive injections is recorded.)

Chain of C-terminal activation domain of hypoxia inducible factor 1α (Hif-1α CAD), wild type (Q16665 776-826): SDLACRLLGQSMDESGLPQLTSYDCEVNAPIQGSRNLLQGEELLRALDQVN
Chain of Hif-1α CAD hydroxylated at Asn-803 (Q16665 776-826): as above

As to “C-terminal activation domain of hypoxia inducible factor 1α (Hif-1α CAD), wild type (from UniProt Q16665 776-826) (domain or fragment)”, in assay [1], the Kd is 3.36 nM and the kon is 8.83e+06 M⁻¹ s⁻¹. The off-rate constant (koff) in assay [2] amounted to 0.0297 s⁻¹.
Take “Hif-1α CAD hydroxylated at Asn-803 (from UniProt Q16665 776-826) (domain or fragment)”: in assay [1], the Kd was found to be 172 nM and the on-rate (kon) came to 7.7e+06 M⁻¹ s⁻¹. Further, the off-rate constant (koff) in assay [2] was determined as 1.32 s⁻¹.
The like results for “Hif-1α CAD L792A (from UniProt Q16665 776-826) (domain or fragment)” were, in that order, 160 nM, 5.75e+06 M⁻¹ s⁻¹ and 0.92 s⁻¹.
As for “Hif-1α CAD L819A (from UniProt Q16665 776-826) (domain or fragment)”, in assay [1], the Kd is 23.1 nM and the kon was 6.1e+06 M⁻¹ s⁻¹. For the same substance, in assay [2], the koff worked out at 0.141 s⁻¹.
Taken in the same sequence, the figures for “Hif-1α CAD L795A (from UniProt Q16665 776-826) (domain or fragment)” were 1100 nM, 6.12e+06 M⁻¹ s⁻¹ and 6.74 s⁻¹.
For “Hif-1α CAD V825A (from UniProt Q16665 776-826) (domain or fragment)”, in assay [1], the Kd is 2.12 nM and the kon is 1.04e+07 M⁻¹ s⁻¹. Further, in assay [2], the koff came out at 0.022 s⁻¹.
As to “Hif-1α CAD I806V (from UniProt Q16665 776-826) (domain or fragment)”, in assay [1], the Kd came to 5.93 nM and the kon came to 9.73e+06 M⁻¹ s⁻¹. In assay [2], the koff is 0.0577 s⁻¹.
The like results for “Hif-1α CAD C800A (from UniProt Q16665 776-826) (domain or fragment)” were, in that order, 17.7 nM, 6.55e+06 M⁻¹ s⁻¹ and 0.116 s⁻¹.
For the substance “Hif-1α CAD L778A (from UniProt Q16665 776-826) (domain or fragment)”, in assay [1], the Kd was 3.65 nM and the kon was determined as 8.06e+06 M⁻¹ s⁻¹. For the same substance, in assay [2], the koff amounted to 0.0294 s⁻¹.
On to “Hif-1α CAD L813A (from UniProt Q16665 776-826) (domain or fragment)”, for which the Kd in assay [1] stood at 137 nM; in assay [3], 144 nM. Moreover, the on-rate (kon) in assay [1] came to 8.52e+06 M⁻¹ s⁻¹. In addition, the koff in assay [2] turned out to be 1.17 s⁻¹.
Regarding “Hif-1α CAD L818A (from UniProt Q16665 776-826) (domain or fragment)”, in assay [1], the Kd worked out at 205 nM and the kon was 6.23e+06 M⁻¹ s⁻¹. Further, the off-rate (koff) in assay [2] came to 1.27 s⁻¹.
The like results for “Hif-1α CAD L783A (from UniProt Q16665 776-826) (domain or fragment)” were, in that order, 3.6 nM, 9.62e+06 M⁻¹ s⁻¹ and 0.0346 s⁻¹.
The like results for “Hif-1α CAD T796S (from UniProt Q16665 776-826) (domain or fragment)” were, in that order, 3.23 nM, 8.27e+06 M⁻¹ s⁻¹ and 0.0267 s⁻¹.
The like results for “Hif-1α CAD L812A (from UniProt Q16665 776-826) (domain or fragment)” were, in that order, 71.5 nM, 7.12e+06 M⁻¹ s⁻¹ and 0.509 s⁻¹.
For the substance “Hif-1α CAD C780A (from UniProt Q16665 776-826) (domain or fragment)”, in assay [1], the Kd came to 3.78 nM and the kon worked out at 9.56e+06 M⁻¹ s⁻¹. Also, in assay [2], the koff worked out at 0.0361 s⁻¹.
Taken in the same sequence, the figures for “Hif-1α CAD V802A (from UniProt Q16665 776-826) (domain or fragment)” were 13.7 nM, 7.28e+06 M⁻¹ s⁻¹ and 0.0995 s⁻¹.
Consider “Hif-1α CAD L782A (from UniProt Q16665 776-826) (domain or fragment)”, for which, in assay [1], the Kd worked out at 4.56 nM and the association rate constant (kon) worked out at 7.36e+06 M⁻¹ s⁻¹. Further, in assay [2], the off-rate constant (koff) came out at 0.0336 s⁻¹.
For “Hif-1α CAD M787A (from UniProt Q16665 776-826) (domain or fragment)”, in assay [1], the Kd stood at 4.83 nM and the kon is 6.7e+06 M⁻¹ s⁻¹. Further, in assay [2], the koff worked out at 0.0324 s⁻¹.
